What all share (assay): multimer staining
Experiment [1] has as its target T1, WT1 (wildtype WT1 peptide) peptide on HLA-A*24:02 (human).
T1 peptide: CMTWNQMNL

Experiment [2] deals with T2, HIV (human immunodeficiency virus) envelope peptide on HLA-A*24:02 (human).
T2 peptide: RYLRDQQLL

The target of experiment [3] is T3, WT1 (mutant WT1 peptide: second methionine of the wildtype peptide substituted with tyrosine) peptide on … (human).
T3 peptide: CYTWNQMNL

B1: WT1 TCR A12-3/B5-1 (TCR, V domains shown)
Valpha: QKEVEQDPGPLSVPEGAIVSLNCTYSNSAFQYFMWYRQYSRKGPELLMYTYSSGNKEDGRFTAQVDKSSKYISLFIRDSQPSDSATYLCATSNAGGTSYGKLTFGQGTILTVHP
Vbeta: KAGVTQTPRYLIKTRGQQVTLSCSPISGHRSVSWYQQTPGQGLQFLFEYFSETQRNKGNFPGRFSGRQFSNSRSEMNVSTLELGDSALYLCASSYGERERKGETQYFGPGTRLLVL
In the case of B1, the values for the binding result in experiment [1], in experiment [2] and in experiment [3] were “recognises”, “no recognition” and “recognises”, respectively.

The values above are taken from patent US20140212888A1 (published 2014).
